From patent publication US20140323392A1 (UNIVERSITY OF UTAH RESEARCH FOUNDATION, published 2014) come the findings set out here.

Common to all, as to assay: cell-based or functional assay
In assay [1] the target is HIV-1 JRFL envelope glycoprotein gp41 (N-trimer of the prehairpin intermediate) (HIV-1 strain JRFL).
For assay [2], the target named is HIV-1 isolate IIIB gp41 (envelope subtype B) (HIV-1 isolate IIIB).
The target in assay [3] is HIV-1 isolate Ba-L gp41 (envelope subtype B) (HIV-1 isolate Ba-L).
The target in assay [4] is HIV-1 isolate JR-CSF gp41 (envelope subtype B) (HIV-1 isolate JR-CSF).
For assay [5], the target named is HIV-1 isolate 92UG029 gp41 (envelope subtype A) (HIV-1 isolate 92UG029).
Assay [6] deals with HIV-1 isolate 92UG037 gp41 (envelope subtype A) (HIV-1 isolate 92UG037).
In assay [7] the target is HIV-1 isolate 93IN101 gp41 (envelope subtype C) (HIV-1 isolate 93IN101).
Assay [8] deals with HIV-1 isolate 92BR025 gp41 (envelope subtype C) (HIV-1 isolate 92BR025).
Assay [9] has as its target HIV-1 isolate 92UG001 gp41 (envelope subtype D) (HIV-1 isolate 92UG001).
Assay [10] concerns the target HIV-1 isolate 92UG046 gp41 (envelope subtype D) (HIV-1 isolate 92UG046).
In assay [11] the target is HIV-1 isolate CMU02 gp41 (envelope subtype AE) (HIV-1 isolate CMU02).
The target of assay [12] is HIV-1 isolate 93TH073 gp41 (envelope subtype E) (HIV-1 isolate 93TH073).
Assay [13] concerns the target HIV-1 isolate CMU06 gp41 (envelope subtype E) (HIV-1 isolate CMU06).
Assay [14] concerns the target HIV-1 isolate 93BR019 gp41 (envelope subtype BF) (HIV-1 isolate 93BR019).
Assay [15] has as its target HIV-1 isolate 93BR020 gp41 (envelope subtype F) (HIV-1 isolate 93BR020).
Assay [16] deals with HIV-1 isolate 93BR029 gp41 (envelope subtype F) (HIV-1 isolate 93BR029).
Assay [17] has as its target HIV-1 isolate G3 gp41 (envelope subtype G) (HIV-1 isolate G3).
Assay [18] deals with HIV-1 isolate RU570 gp41 (envelope subtype G) (HIV-1 isolate RU570).

Bridges are numbered along the chain shown (N, C = ends). [ ]: non-standard residue; d: D form.

B1: PIE12 trimer (Table 3) (peptide)
peptide: Ac-[dH][dP][dC][dD][dY][dP][dE][dW][dQ][dW][dL][dC][dE][dL]G[dK]-NH2
modifications: disulfide 3-12 (inferred); also: trimer, crosslinking not given here
In the case of B1, the “IC50, replication competent virus on PBMC target cells” value (“IC50, replication competent virus” below) amounted to 0.26 nM in [1]; 0.78 nM in assay [2]; 0.27 nM in [3]; 0.08 nM in [4]; 0.69 nM in assay [5]; 0.21 nM in assay [6]. Further, the “IC50, replication competent virus” value is 0.38 nM in assay [7]; 5.19 nM in assay [8]; 4.45 nM in assay [9]; 1.2 nM in assay [10]; 0.35 nM in [11]; 0.84 nM in assay [12]. Also, the “IC50, replication competent virus” value worked out at 0.38 nM in [13]; 4.72 nM in [14]; 0.37 nM in [15]; 0.79 nM in [16]; 1.21 nM in assay [17]; 0.36 nM in assay [18].
